From patent US6833192B1, “Encapsulation of crystals via multilayer coatings” (Max-Planck Gesellschaft Zur Forderrung der Wissenschaften …, priority 1999, dated 2004)

Key:
[1] = Determination of catalase activity (decomposition of H2O2 at 240 nm); format: biochemical; conditions: after solubilization and release from the polymer capsules; uncoated catalase measured the same way for comparison
Procedure: The enzyme was released from the polymer capsules by exposure to ultrasound for 5 min at 20° C. in 1 M phosphate buffer at pH 7 (this caused rupturing of the polymer walls). The catalase activity was determined using a standard enzyme activity assay (Biochemica Information, 15-16 Boehringer Mannheim (1987); Tijsen, Practice and Theory of Enzyme Immunoassays, 8th Impression (1993), Elsevier, 202-203): that is, by measuring the decomposition of the substrate hydrogen peroxide (H2O2) at 240 nm. The concentration of the catalase was determined spectrophotometrically at 280 nm and 405 nm (soret band). The specific acitvity of the uncoated catalase was measured in the same way and used for comparison.

[2] = Electrophoretic mobility / Zeta-potential measurement; format: physicochemical; conditions: water at pH 5; by electrophoretic mobility
Procedure: Electrophoretic mobilities of the uncoated and polymer-multilayer coated enzyme crystals were measured using a Malvern Zetasizer 4 as described elsewhere (Caruso et al., J. Phys. Chem. B 102, 2011-2116 (1998); Sukhorukov, G. B. et al., Polym. Adv. Technol. 9, 759-767 (1998); Donath et al., Angew. Chem. Int. Ed. 37, 2201-2205 (1998). The mobility u was converted into a ξ-potential using the Smoluchowski relation ξ=uη/ε, where η and ε are the viscosity and permittivity of the solution, respectively. Atomic force microscopy (AFM) images were obtained using a Digital Instruments Nanoscope IIIa AFM in tapping mode (TM) on samples deposited onto cleaned glass slides and air-dried. Samples for transmission electron microscopy (TEM) were prepared by deposition of aqueous solutions of the hollow polymer capsules upon a carbon-coated copper grid, allowing them to air dry for one minute, and then blotting off the extra solution.

[3] = test system: protease (Streptomyces griseus); assay: Proteolysis experiment (decrease in catalase enzyme activity on protease incubation); format: biochemical; conditions: incubation time of 100 min, 37° C., pH 7; starting activity normalized to 100%
Procedure: 10 mg of protease (Streptomyces griseus; Sigma P6911; activity=5.2 U/mg solid) was dissolved in 500 μl of phosphate buffered saline (PBS, pH 7.0)(100 U/ml) and used as the stock solution. 200 μl samples of the polyelectrolyte-coated catalase and solubilized catalase where separately incubated in a water bath at 37° C. with either 30 μl of the stock protease solution of 30 μl of PBS (control experiment). The starting activity of the catalase for all samples was approximately 12000 U/ml catalase. The starting activities were normalized to 100%. The final protease activity in the sample was […]. Proteolysis of the catalase was determined by measuring the decrease in the catalase enzyme activity. The catalase activity measurements where carried out according to the previously described method (i.e. by spectrophotometric detection (240 nm) of the decomposition of hydrogen peroxide, see Tijsen, Practice and Theory of Enzyme Immunoassays, Elsevier, 8th Impression (1993), pp. 202-203.15). 5 μl samples were diluted and used for the activity measurements.

B1: catalase (protein, UniProt P00432 2-527, looked up)
Catalase: ADNRDPASDQMKHWKEQRAAQKPDVLTTGGGNPVGDKLNSLTVGPRGPLLVQDVVFTDEMAHFDRERIPERVVHAKGAGAFGYFEVTHDITRYSKAKVFEHIGKRTPIAVRFSTVAGESGSADTVRDPRGFAVKFYTEDGNWDLVGNNTPIFFIRDALLFPSFIHSQKRNPQTHLKDPDMVWDFWSLRPESLHQVSFLFSDRGIPDGHRHMNGYGSHTFKLVNANGEAVYCKFHYKTDQGIKNLSVEDAARLAHEDPDYGLRDLFNAIATGNYPSWTLYIQVMTFSEAEIFPFNPFDLTKVWPHGDYPLIPVGKLVLNRNPVNYFAEVEQLAFDPSNMPPGIEPSPDKMLQGRLFAYPDTHRHRLGPNYLQIPVNCPYRARVANYQRDGPMCMMDNQGGAPNYYPNSFSAPEHQPSALEHRTHFSGDVQRFNSANDDNVTQVRTFYLKVLNEEQRKRLCENIAGHLKDAQLFIQKKAVKNFSDVHPEYGSRIQALLDKYNEEKPKNAVHTYVQHGSHLSAREKANL
modifications: crystals
notes: catalase enzyme crystals (Sigma, C-100), uncoated template and comparison
recovered specific activity [1]: 100% | Zeta potential (surface charge) [2]: +20 mV | inactivation by protease [3]: > 90%
